Results from article PMC5499739, “An RRM–ZnF RNA recognition module targets RBM10 to exonic sequences to promote exon exclusion”.

T1: RBM10 RRM1-ZnF (Homo sapiens) (UniProt P98175)
T1 sequence: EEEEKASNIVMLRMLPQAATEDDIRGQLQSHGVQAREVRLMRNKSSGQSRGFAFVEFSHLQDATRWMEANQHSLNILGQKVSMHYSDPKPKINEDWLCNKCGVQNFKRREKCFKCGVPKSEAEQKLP

T2: RBM10 RRM1-ZnF-RRM2 (Homo sapiens) (UniProt P98175)
T2 sequence: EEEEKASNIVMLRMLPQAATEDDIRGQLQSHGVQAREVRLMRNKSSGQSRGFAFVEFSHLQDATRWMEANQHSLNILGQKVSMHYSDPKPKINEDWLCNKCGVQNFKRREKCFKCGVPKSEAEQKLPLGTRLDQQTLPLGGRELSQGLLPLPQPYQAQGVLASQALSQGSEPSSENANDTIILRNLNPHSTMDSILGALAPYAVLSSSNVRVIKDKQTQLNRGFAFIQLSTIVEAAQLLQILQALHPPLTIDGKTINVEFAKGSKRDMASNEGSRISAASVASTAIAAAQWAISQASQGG

T3: RBM10 RRM1-ZnF (Homo sapiens, UniProt P98175 129-242)
T3 sequence: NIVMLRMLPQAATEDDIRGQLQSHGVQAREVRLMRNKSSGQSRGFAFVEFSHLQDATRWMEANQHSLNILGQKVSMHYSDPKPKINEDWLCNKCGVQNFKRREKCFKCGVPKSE

T4: RBM10 RRM2 (Homo sapiens, UniProt P98175 300-384)
T4 sequence: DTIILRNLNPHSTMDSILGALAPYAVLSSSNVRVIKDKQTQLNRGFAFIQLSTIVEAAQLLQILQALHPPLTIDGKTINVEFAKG

T5: RBM10 RRM1-ZnF-RRM2 (Homo sapiens, UniProt P98175 129-384)
T5 sequence: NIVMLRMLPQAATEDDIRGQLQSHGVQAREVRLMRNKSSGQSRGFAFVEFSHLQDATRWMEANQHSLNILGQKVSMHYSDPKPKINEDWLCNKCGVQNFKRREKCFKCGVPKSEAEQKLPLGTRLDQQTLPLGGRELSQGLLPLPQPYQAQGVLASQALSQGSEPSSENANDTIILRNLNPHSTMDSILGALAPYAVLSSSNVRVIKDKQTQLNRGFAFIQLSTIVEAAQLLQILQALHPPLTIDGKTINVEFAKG


Key:
[1] = biological target: T1, RBM10 RRM1-ZnF (Homo sapiens); assay: pulldown; settings: 20 nM protein; 20 mM Hepes pH 7.8, 80 mM KCl, 20 mM NaCl, 10% glycerol, 2 mM DTT; 4 C
[2] = biological target: T2, RBM10 RRM1-ZnF-RRM2 (Homo sapiens); assay: pulldown; settings: 20 nM protein; 20 mM Hepes pH 7.8, 80 mM KCl, 20 mM NaCl, 10% glycerol, 2 mM DTT; 4 C
RBM10 RRM1-ZnF [3] = biological target: T3, RBM10 RRM1-ZnF; assay: ITC; 10 uM ZnCl2; 10 mM sodium phosphate pH 6.9, 50 mM NaCl, 1 mM TCEP (+10 uM ZnCl2 for ZnF constructs); ITC 25 C; NMR 298 or 310 K; settings: protein: recombinant; tags: His6 or His6-SUMO3, cleaved with HRV 3C
RBM10 RRM2 = biological target: T4, RBM10 RRM2; assay: ITC; 10 mM sodium phosphate pH 6.9, 50 mM NaCl, 1 mM TCEP (+10 uM ZnCl2 for ZnF constructs); ITC 25 C; NMR 298 or 310 K; settings: protein: recombinant; tags: His6 or His6-SUMO3, cleaved with HRV 3C
RBM10 RRM1-ZnF [4] = biological target: T3, RBM10 RRM1-ZnF; assay: ITC; 10 uM ZnCl2; 10 mM sodium phosphate pH 6.9, 50 mM NaCl, 1 mM TCEP (+10 uM ZnCl2 for ZnF constructs); ITC 25 C; NMR 298 or 310 K; settings: protein: recombinant; tags: His6 or His6-SUMO3, cleaved with HRV 3C; remark: listed apart in the source
RBM10 RRM1-ZnF-RRM2 = biological target: T5, RBM10 RRM1-ZnF-RRM2; assay: NMR; 10 uM ZnCl2; RRM1-ZnF slow exchange, Kd in nM range; RRM2 second weak event, Kd in uM range; 10 mM sodium phosphate pH 6.9, 50 mM NaCl, 1 mM TCEP (+10 uM ZnCl2 for ZnF constructs); ITC 25 C; NMR 298 or 310 K; settings: protein: recombinant; tags: His6 or His6-SUMO3, cleaved with HRV 3C
RBM10 RRM1-ZnF [5] = biological target: T3, RBM10 RRM1-ZnF; assay: ITC; 10 uM ZnCl2; 10 mM sodium phosphate pH 6.9, 50 mM NaCl, 1 mM TCEP (+10 uM ZnCl2 for ZnF constructs); ITC 25 C; NMR 298 or 310 K; settings: protein: recombinant; tags: His6 or His6-SUMO3, cleaved with HRV 3C; remark: listed apart in the source

Row | Molecule | binding signal (RNAcompete z-score) [1] | binding signal (RNAcompete z-score) [2] | further results
1 | GAAAUGG [7-mer GAAAUGG] | 5.03 | 4.79 | –
2 | GGUAGGG [7-mer GGUAGGG] | – | 4.79 | –
3 | GGGAAGG [7-mer GGGAAGG] | 5.91 | 5.54 | –
4 | GGAUGGG [7-mer GGAUGGG] | 5.66 | 4.83 | –
5 | GGUGGGG [7-mer GGUGGGG] | 5.21 | – | –
6 | GGAAAGG [7-mer GGAAAGG] | 6.53 | 6.43 | –
7 | AAAGGGU [7-mer AAAGGGU] | 5 | – | –
8 | GGGAUGG [7-mer GGGAUGG] | 5.71 | 5.12 | –
9 | AGGGAAA [7-mer AGGGAAA] | – | 4.87 | –
10 | GGAAGGG [7-mer GGAAGGG] | 6 | 5.56 | –
11 | GAAGGGG [7-mer GAAGGGG] | 5.25 | 4.83 | –
12 | GGUUGGG [7-mer GGUUGGG] | 5.27 | – | –
13 | GAAAGGA [7-mer GAAAGGA] | 5.87 | 5.67 | –
14 | AAGGGUG [7-mer AAGGGUG] | 5.25 | 5.29 | –
15 | GAAAGGG [7-mer GAAAGGG] | 6.04 | 5.54 | –
16 | AGUAGGG [7-mer AGUAGGG] | – | 4.88 | –
17 | GGUAAGG [7-mer GGUAAGG] | 4.97 | 4.92 | –
18 | GAGUGGG [7-mer GAGUGGG] | 4.99 | 4.9 | –
19 | UGUGGA (ssRNA) | – | – | binding signal (RBM10 RRM1-ZnF [3]): ~2 fold decrease in affinity vs CUGUGGA
20 | CUAUGGA (ssRNA) | – | – | binding signal (RBM10 RRM1-ZnF [3]): ~5 fold decrease in affinity vs CUGUGGA
21 | UAAUA (ssRNA) | – | – | binding result (RBM10 RRM2): no binding
22 | CUGUGGA (ssRNA) | – | – | binding result (RBM10 RRM1-ZnF [4]): binds; binding result (RBM10 RRM1-ZnF-RRM2): binds
23 | CAGUGGA (ssRNA) | – | – | binding signal (RBM10 RRM1-ZnF [3]): < 2 fold decrease in affinity vs CUGUGGA
24 | CUGUGGU (ssRNA) | – | – | binding signal (RBM10 RRM1-ZnF [5]): ~3 fold decrease in affinity vs CUGUGGA
25 | CUGAGGA (ssRNA) | – | – | binding signal (RBM10 RRM1-ZnF [3]): < 2 fold decrease in affinity vs CUGUGGA
26 | CCCAC (ssRNA) | – | – | Kd (RBM10 RRM2): ~7 µM
